# Results: article PMC10252837, “A Novel Time-Resolved Fluorescence Resonance Energy Transfer Assay for the Discovery of Small-Molecule Inhibitors of HIV-1 Tat-Regulated Transcription” (International Journal of Molecular Sciences, 2023)
# Square brackets hold non-standard residues; d marks the D form. Ends that are not written are not given here. Peptide text beside a SMILES is read from it. * marks the point of attachment. Biotin = O=C1N[C@H]2[C@H](CS[C@H]2CCCCC(=O)*)N1
# T1: Biotin-Tat (ARM) (HIV-1 NL4-3, UniProt P04608)
# T1 chain: Biotin-GISYGRKKRRQRRRA
# T2: Flag-Tat (ARM) (HIV-1 NL4-3, UniProt P04608)
# T2 chain: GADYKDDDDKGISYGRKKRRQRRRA
# T3: Tat (ARM), tag-free (HIV-1 NL4-3, UniProt P04608)
# T3 chain: GISYGRKKRRQRRRA
# Tests used:
# TAR RNA = target: TAR RNA; design: method as in PMID 19584251; settings: EMSA; read-out: Kd determined by EMSA; cited from earlier work
# [1] = target: T4, Tat (ARM)-TAR RNA interaction (Human immunodeficiency virus type 1 group M subtype B, UniProt P04608); assay: TR-FRET assay with biotinylated ARM and Eu-conjugated StAV; format: binding, HIV-1; settings: five-thousand-fold excess
# T4 construct: purchased Peptron, Daejeon, Republic of Korea (custom peptide synthesis); host or cells: chemical synthesis
# Text: Initially, a simplified TR-FRET assay was designed to determine the interaction of Tat (ARM)-TAR RNA using 5′-cyanine 5 (Cy5)-labeled TAR RNA (31 nt) and Tat (ARM) tagged with either biotin, HA, FLAG, or FITC; this was based on size-minimalized analytes to focus on the essential biochemical relevance of the Tat-TAR RNA interaction. After Tat (ARM) binds to the TAR RNA, each Eu-conjugated antibody recognized the cognate tag on the Tat (ARM) peptide. When the reaction is irradiated with a 320 nm laser, the emissive energy from the donor Eu chelate is then transferred to the Cy5 dye-labeled to TAR RNA placed at a close distance (~10 nm), resulting in luminescence at 665 nm from Cy5 and 615 nm from Eu. A certain substance inhibiting the Tat-TAR RNA interaction causes the loss of luminescence in the sample at 665 nm emission (Figure 1A). To determine which Eu-conjugated recognizer (anti-Flag, -HA, FITC antibodies, or streptavidin) is appropriate for successfully establishing the TR-FRET assay, 20 nM of ARM tagged with each epitope and the same concentration of Cy5-labeled TAR RNA fragment were incubated with 5 nM of cognate Eu-conjugated recognizer.
# StAV-Eu + + + + + + + + + + + + + + + + + + + + + + StAV-Eu + + + + + + + + + + + + […]
# Bio-ARM + + + + + + + + + + + + + + + + + + + + + Biotin-ARM - + - + - + - + - + - +
# Competitor BSA ARM L-22 LK-3 L-50
# Figure S1. […]
# [2] = test system: Tat (ARM)-TAR RNA interaction
# Procedure: To test whether our assay is applicable for screening specific inhibitors of the Tat-TAR RNA interaction, inhibition assays were performed with known inhibitors of the Tat-TAR RNA interaction. […] A dose–response competition assay was conducted at inhibitor concentrations of 0–100 μM to determine their inhibitory curves in our assay. […] Additionally, a dose-responsive competition assay using RNA fragments was performed to validate the specificity of the assay.
# Data are expressed as the mean ± SD (n = 3) compared to a control lacking an RNA competitor.
# The indicated concentrations of ARM and Cy5-TAR RNA fragments were incubated in 20 μL of 1× LANCE ultra assay buffer in 384-well microtiter plates with or without inhibitor (competitor) for 30 min at 20 °C in the dark. […] The reaction was performed in a final volume of 25 μL. Small volumes of the reaction solution were added automatically using Assist-Plus (Integra Bioscience, Zisers, Switzerland). After adding all the assay components, the plates were sealed with a clear cover. The ARM-TAR RNA interaction signal was measured in an EnSight multimode plate reader (PerkinElmer) using the LANCE protocol of the time-resolved fluorescence (TRF) mode in the Kaleido software (PerkinElmer), according to the manufacturer’s protocol. Briefly, the excitation light was directed to the donor (Eu) from the Xenon flash lamp at 320 nm selected by an optical filter, and then, an integration time of 100 μs and a delay time of 70 μs were provided to remove short-lived background signals; subsequently, two emission lights were detected at 615 nm for the donor (Eu) and 665 nm for the acceptor (Cy5). The TRF was measured from the top using an excitation filter and emission monochromators in a single measurement mode. The TR-FRET output signal was expressed as the emission ratio of acceptor/donor (665/615 nm × 1000) fluorescence counts. The fold activity of the TR-FRET signal for ARM-TAR RNA interaction was calculated compared to the control reaction lacking the ARM peptide.
# HIV-1 = settings: read-out: IC50 of HIV-1 infection; cited from earlier work
# LK3 peptide = assay: TR-FRET competition
# L-51 cyclic peptide = assay: TR-FRET competition
# L-50 cyclic peptide = assay: TR-FRET competition
# L-22 cyclic peptide = assay: TR-FRET competition
# Biotin-Tat (ARM) = target: T1, Biotin-Tat (ARM); assay: TR-FRET; 20 nM each; Eu-StAV; poorly competed by free ARM and L-22; settings: tags: N-terminal biotin; label: 5'-Cy5; hairpin with UCU bulge
# Flag-Tat (ARM) [3] = target: T2, Flag-Tat (ARM); assay: TR-FRET; up to 100 nM each; Eu-anti-Flag 5 nM; settings: tags: N-terminal FLAG; label: 5'-Cy5; hairpin with UCU bulge
# Tat (ARM), tag-free = target: T3, Tat (ARM), tag-free; assay: competition; TR-FRET, 10-fold excess over Flag-ARM; settings: label: 5'-Cy5; hairpin with UCU bulge
# Flag-Tat (ARM) [4] = target: T2, Flag-Tat (ARM); assay: TR-FRET; 50 nM each; settings: tags: N-terminal FLAG; label: 5'-Cy5; hairpin without bulge
molecule,measurement,setting,value
CC[C@H](C)[C@@H]1NC(=O)[C@H](CCCNC(=N)N)NC(=O)[C@H](CCCNC(=N)N)NC(=O)CNC(=O)[C@H](CCCCN)NC(=O)[C@H](CCCNC(=N)N)NC(=O)[C@H]([C@@H](C)O)NC(=O)[C@H](CCCNC(=N)N)NC(=O)[C@H](C(C)C)NC(=O)[C@H](CCCNC(=N)N)NC(=O)[C@@H]2CCCN2C(=O)[C@H]2CCCN2C(=O)[C@H]([C@@H](C)CC)NC(=O)[C@H](CCCNC(=N)N)NC1=O [Hit L-22] (cyclo(RVRTRKGRRIRI[dP]P)),Kd,TAR RNA,0.03 µM
same,"inhibition of TR-FRET signal, in words",[1],insufficient inhibition
same,IC50,"[2]; read-out: IC50 of ARM-TAR RNA interaction (TR-FRET competition), 50 nM Flag-ARM and 5′-Cy5-TAR RNA, inhibitor 0-100 μM",0.228 µM
Nc1ccc2oc(-c3cc(F)c(F)cc3Cl)nc2c1 [Hit T0516-4834],IC50,HIV-1,0.2 µM
GGCCAGAUCUGAGCCUGGGAGCUCUCUGGCC [Cy5-TAR RNA (31 nt)],IC50,LK3 peptide,0.0678 µM
same,IC50,L-51 cyclic peptide,0.276 µM
same,IC50,L-50 cyclic peptide,0.0959 µM
same,IC50,L-22 cyclic peptide,0.228 µM
GISYGRKKRRQRRRA [ARM],"inhibition of TR-FRET signal, in words",[1],insufficient inhibition
same,inhibition of TR-FRET signal,"[2]; 500 nM competitor, control of primary screen",~ 70%
same,"TR-FRET signal in peptide/protein competition assay, in words","[2]; 10-fold excess competitor, 50 nM analytes",significantly decreased
GGCCAGAUCUGAGCCUGGGAGCUCUCUGGCC (structured_RNA) [Cy5-TAR RNA (31 nt)],binding result,Biotin-Tat (ARM),binds
same,binding signal,Flag-Tat (ARM) [3],~11 fold signal over background
same,binding result,"Tat (ARM), tag-free",binds
"GGCCAGAGAGCCUGGGAGCUCUCUGGCC (structured_RNA) [Cy5-mt TAR RNA (28 nt, bulge-free)]",binding result,Flag-Tat (ARM) [4],no binding
